The source of these data is IntAct's records for PubMed 20696397.

To fix the notation:
B1: E3 ubiquitin-protein ligase RING2 (Homo sapiens), Q99496 (parent)
chain: MSQAVQTNGTQPLSKTWELSLYELQRTPQEAITDGLEIVVSPRSLHSELMCPICLDMLKNTMTTKECLHRFCADCIITALRSGNKECPTCRKKLVSKRSLRPDPNFDALISKIYPSRDEYEAHQERVLARINKHNNQQALSHSIEEGLKIQAMNRLQRGKKQQIENGSGAEDNGDSSHCSNASTHSNQEAGPSNKRTKTSDDSGLELDNNNAAMAIDPVMDGASEIELVFRPHPTLMEKDDSAQTRYIKTSGNATVDHLSKYLAVRLALEELRSKGESNQMNLDTASEKQYTIYIATASGQFTVLNGSFSLELVSEKYWKVNKPMELYYAPTKEHK
partner: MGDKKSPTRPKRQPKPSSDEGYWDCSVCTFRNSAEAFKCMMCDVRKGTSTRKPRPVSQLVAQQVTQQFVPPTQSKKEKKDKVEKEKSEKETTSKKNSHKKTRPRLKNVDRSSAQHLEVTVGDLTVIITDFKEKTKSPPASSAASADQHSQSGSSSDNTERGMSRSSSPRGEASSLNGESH
B2: Chromobox protein homolog 7 (Homo sapiens), O95931 (parent)
chain: MELSAIGEQVFAVESIRKKRVRKGKVEYLVKWKGWPPKYSTWEPEEHILDPRLVMAYEEKEERDRASGYRKRGPKPKRLLLQRLYSMDLRSSHKAKGKEKLCFSLTCPLGSGSPEGVVKAGAPELVDKGPLVPTLPFPLRKPRKAHKYLRLSRKKFPPRGPNLESHSHRRELFLQEPPAPDVLQAAGEWEPAAQPPEEEADADLAEGPPPWTPALPSSEVTVTDITANSITVTFREAQAAEGFFRDRSGKF

One test covers variants of B1. The settings on record: with YAF2, Q8IY57-1.
Regarding Y262A, the “effect of a mutation on the interaction” value is on record as “disrupting interaction”.

As for H258A, the “effect of a mutation on the interaction” value is “disrupting interaction”.

The next test covers variants of B2. The note with it: with ring2_human RNF2, Q99496.
As to F234D, the “effect of a mutation on the interaction” value is “disrupting interaction”.
